Laboratory results reported in US20070178464A1.

Target: Probe II: N-terminal domains of Rluc and DnaE with nuclear localization signal (expressed from pcRDn-NLS) (Renilla; blue-green algae, PCC6803 strain) (UniProt P27652)
Experiment: cell-based or functional assay

Probe II: N-terminal domains of Rluc and DnaE with nuclear localization signal (expressed from pcRDn-NLS) (Renilla; blue-green algae, PCC6803 strain), sequence (P27652 whole entry, the tested form may be a part): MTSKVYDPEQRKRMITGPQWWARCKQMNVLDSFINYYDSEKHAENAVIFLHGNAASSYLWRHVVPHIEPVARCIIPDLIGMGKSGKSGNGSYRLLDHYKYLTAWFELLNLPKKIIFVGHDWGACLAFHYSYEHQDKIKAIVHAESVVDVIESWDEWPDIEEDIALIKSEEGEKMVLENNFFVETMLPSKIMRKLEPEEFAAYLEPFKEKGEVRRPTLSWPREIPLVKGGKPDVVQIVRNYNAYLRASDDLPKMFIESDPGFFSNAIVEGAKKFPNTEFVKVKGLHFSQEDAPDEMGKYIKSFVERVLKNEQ

luminescence intensity (cooled CCD image of mice implanted with transfected COS-7 cells): 20 times
Substance: Probe I: AR connected to the C-terminal domains of RLuc and DnaE (expressed from pcDRc-AR) (from UniProt P27652 230-311; P10275 1-918)
